Patent US20100209400A1, “TAK1-Mediated Regulation of Osteogenesis” (priority 2003, published 2010)

Columns and labels:
SMAD proteins = experiment: Co-immunoprecipitation of TAK1 variants with SMADs from HEK293T cells; format: binding; settings: SMAD7, R-SMADs 1-3, 5, SMAD4
Protocol: Co-immunoprecipitation were conducted as described (Verschueren K et al, J. Biol. Chem, 274: 20489-20498, 1999). Human embryonic kidney (HEK) 293T cells were plated at 3×10^6 cells/petri dish (55 square centimeters (cm^2)) one day prior to transfection. For transient transfections, 1 μg of Flag-tagged expression plasmid and 2 μg of Myc- or HA-tagged expression plasmids were utilized. DNA content was normalized with empty vector. Transfections were performed with FuGENE6 (Roche, Mannheim). Roughly 36 hours post-transfection cells were dislodged from dishes and harvested by centrifugation. Pellets were shock frozen in liquid nitrogen. […] reactions were performed in lysis buffer. Cell extracts and immunoprecipitates were analyzed by SDS-PAGE and Western blot analysis using the appropriate antibodies.
Toward this end, co-immunoprecipitation with various combinations of wild-type TAK1 (TAK1wt) and R-SMADs, either in a latent form or post-activation by constitutively active BMP type I receptor (ALK6ca, BMPR-IB) or activin type I receptor ALK4ca (ActR-IB), I-SMADs and SMAD4, were conducted. […] TAK1 interaction with R-SMADs was typically stronger in the absence of constitutively active receptors (the exception being SMAD3), which may reflect a reduced affinity for activated, i.e. phosphorylated R-SMADs by TAK1, except with SMAD3.
SMAD proteins only bind TAK1 with an intact or a constitutively active kinase domain. Different TAK1 variants such as TAK1wt, TAK1ca, TAK1dn and two deletions, TAKDN (lacking amino acids 1-300; FIG. 1a) and TAKDC (lacking 301-606; FIG. 1a), respectively, were tested for their ability to bind to R-SMADs (using SMAD1 as a representative) or I-SMAD6 and I-SMAD7.

C3H10T½-BMP2 cells = experiment: FACS for apoptosis and cell cycle progression; format: cell-based, murine; settings: CDDP 25 μM; etoposide 10 μM; TAK1 variants stably co-expressed
Protocol: Exponentially growing cells were harvested 48 hours post-seeding or at different stages at and after confluence by trypsinization and fixation with 80% methanol. Cellular DNA content was determined by staining cells with RNAseS/propidium iodide, and measuring fluorescence in a Becton Dickinson FACScan. For each cell population, 10,000 cells were analyzed, and the proportions in G0/G1, G2/M and S-phases were estimated by using Modfit cell cycle analysis software. Information on cell size (e.g. due to differentiation) and complexity could be obtained from forward and side scatter data following evaluation of relevant cell populations.
To determine whether TAK1-mediated effects in the assay systems above resulted from apoptosis, C3H10T½-BMP2 cells co-expressing TAK1 variants were assayed by FACS for apoptosis and cell cycle progression.

B1: TAK1dn: dominant-negative TAK1 mutant (K63W), kinase inactive (protein)
chain: MSTASAASSSSSSSASEMIEAPSQVLNFEEIDYKEIEVEEVVGRGAFGVVCKAKWRAKDVAIWQIESESERKAFIVELRQLSRVNHPNIVKLYGACLNPVCLVMEYAEGGSLYNVLHGAEPLPYYTAAHAMSWCLQCSQGVAYLHSMQPKALIHRDLKPPNLLLVAGGTVLKICDFGTACDIQTHMTNNKGSAAWMAPEVFEGSNYSEKCDVFSWGIILWEVITRRKPFDEIGGPAFRIMWAVHNGTRPPLIKNLPKPIESLMTRCWSKDPSQRPSMEEIVKIMTHLMRYFPGADEPLQYPCQYSDEGQSNSATSTGSFMDIASTNTSNKSDTNMEQVPATNDTIKRLESKLLKNQAKQQSESGRLSLGASRGSSVESLPPTSEGKRMSADMSEIEARIVATAGNGQPRRRSIQDLTVTGTEPGQVSSRSSSPSVRMITTSGPTSEKPARSHPWTPDDSTDTNGSDNSIPMAYLTLDHQLQPLAPCPNSKESMAVFEQHCKMAQEYMKVQTEIALLLQRKQELVAELDQDEKDQQNTSRLVQEHKKLLDENKSLSTYYQQCKKQLEVIRSQQQKRQGTS
modifications: left off: small tags and cut ends
SMAD proteins
  binding of TAK1 variant to SMAD proteins (co-immunoprecipitation): blocked binding
C3H10T½-BMP2 cells
  apoptosis (subG0-G1 peak): did not induce apoptosis
